Drawing on PMC3037694, this text covers efficiency of secretion after a 60-min chase (pulse-chase, CHO cells) for two substances.

The target in test [1] is HA-tagged bovine pancreatic RNase N113S expressed in CHO cells (bovine) (UniProt P61823).
Test [2] has as its target HA-tagged bovine pancreatic RNase expressed in CHO cells (bovine) (UniProt P61823).

Turning to “HA-tagged bovine pancreatic RNase N113S expressed in CHO cells (from UniProt P61823 27-150) (enzyme)”, the efficiency of secretion after a 60-min chase (pulse-chase, CHO cells) in test [1] amounted to 72%. Substance “HA-tagged bovine pancreatic RNase expressed in CHO cells (from UniProt P61823 27-150) (enzyme)” returned an efficiency of secretion after a 60-min chase (pulse-chase, CHO cells) in test [2] of 45%.
